How the values were obtained:
Test in all cases: cell-based or functional assay
[1] = molecular target: HIV-1 Env of isolate MGRM-G-014 (subtype G), on pseudovirus (HIV-1)
[2] = molecular target: HIV-1 Env of isolate APV_17 (subtype B) (HIV-1)
[3] = molecular target: HIV-1 Env of isolate MGRM-G-024 (subtype G), on pseudovirus (HIV-1)
[4] = molecular target: aMLV envelope, on pseudovirus (negative control)
[5] = molecular target: HIV-1 Env of isolate MGRM-G-001 (subtype G), on pseudovirus (HIV-1)
[6] = molecular target: HIV-1 Env of isolate MGRM-G-016 (subtype G), on pseudovirus (HIV-1)
[7] = molecular target: HIV-1 Env of isolate 92BR020 (subtype B) (HIV-1)
[8] = molecular target: HIV-1 Env of isolate 93TH305 (subtype B) (HIV-1)
[9] = molecular target: HIV-1 Env of isolate MGRM-G-028 (subtype G), on pseudovirus (HIV-1)
[10] = molecular target: HIV-1 Env of isolate MGRM-G-025 (subtype G), on pseudovirus (HIV-1)
[11] = molecular target: HIV-1 Env of isolate MGRM-G-009 (subtype G), on pseudovirus (HIV-1)
[12] = molecular target: HIV-1 Env of isolate MGRM-G-015 (subtype G), on pseudovirus (HIV-1)
[13] = molecular target: HIV-1 Env of isolate MGRM-G-006 (subtype G), on pseudovirus (HIV-1)
[14] = molecular target: HIV-1 Env of isolate MGRM-G-004 (subtype G), on pseudovirus (HIV-1)
[15] = molecular target: HIV-1 Env of isolate 6535.3 (subtype B) (HIV-1)
[16] = molecular target: HIV-1 Env of isolate APV 6 (subtype B) (HIV-1)
[17] = molecular target: HIV-1 Env of isolate MGRM-G-027 (subtype G), on pseudovirus (HIV-1)
[18] = molecular target: HIV-1 Env of isolate MGRM-G-013 (subtype G), on pseudovirus (HIV-1)
[19] = molecular target: HIV-1 Env of isolate MGRM-G-011 (subtype G), on pseudovirus (HIV-1)
[20] = molecular target: HIV-1 Env of isolate MGRM-G-017 (subtype G), on pseudovirus (HIV-1)
[21] = molecular target: HIV-1 JR-CSF Env R480A (HIV-1 JR-CSF) (UniProt P20871)
[22] = molecular target: HIV-1 Env of isolate MGRM-G-019 (subtype G), on pseudovirus (HIV-1)
[23] = molecular target: HIV-1 Env of isolate APV 13 (subtype B) (HIV-1)

B1: PGT-128 (antibody, V domains shown)
VH: QPQLQESGPTLVEASETLSLTCAVSGDSTAACNSFWGWVRQPPGKGLEWVGSLSHCASYWNRGWTYHNPSLKSRLTLALDTPKNLVFLKLNSVTAADTATYYCARFGGEVLRYTDWPKPAWVDLWGRGTLVTVSS
VL: QSALTQPPSASGSPGQSITISCTGTSNNFVSWYQQHAGKAPKLVIYDVNKRPSGVPDRFSGSKSGNTASLTVSGLQTDDEAVYYCGSLVGNWDVIFGGGTKLTVL
IC50 (µg/mL), neutralization of pseudovirus [1]: 0.004 µg/mL | IC50 (µg/mL), pseudovirus neutralization [2]: 0.016 µg/mL | IC50 (µg/mL), neutralization of pseudovirus [3]: 0.095 µg/mL | IC50 (µg/mL), neutralization of pseudovirus [4]: > 50 µg/mL | IC50 (µg/mL), neutralization of pseudovirus [5]: 0.019 µg/mL | IC50 (µg/mL), neutralization of pseudovirus [6]: > 50 µg/mL | IC50 (µg/mL), pseudovirus neutralization [7]: 0.009 µg/mL | IC50 (µg/mL), pseudovirus neutralization [8]: 0.006 µg/mL | IC50 (µg/mL), neutralization of pseudovirus [9]: 0.008 µg/mL | IC50 (µg/mL), neutralization of pseudovirus [10]: 0.017 µg/mL | IC50 (µg/mL), neutralization of pseudovirus [11]: > 50 µg/mL | IC50 (µg/mL), neutralization of pseudovirus [12]: > 50 µg/mL | IC50 (µg/mL), neutralization of pseudovirus [13]: > 50 µg/mL | IC50 (µg/mL), neutralization of pseudovirus [14]: > 50 µg/mL | IC50 (µg/mL), pseudovirus neutralization [15]: 0.011 µg/mL | IC50 (µg/mL), pseudovirus neutralization [16]: 0.007 µg/mL | IC50 (µg/mL), neutralization of pseudovirus [17]: 0.313 µg/mL | IC50 (µg/mL), neutralization of pseudovirus [18]: 0.995 µg/mL | IC50 (µg/mL), neutralization of pseudovirus [19]: 8.21 µg/mL | IC50 (µg/mL), neutralization of pseudovirus [20]: 0.319 µg/mL | Fold IC50 increase relative to wild-type [21]: 0.1 fold | IC50 (µg/mL), neutralization of pseudovirus [22]: 0.01 µg/mL | IC50 (µg/mL), pseudovirus neutralization [23]: 0.008 µg/mL

— patent US20240132578A1
